Data taken from the supplement of paper PMC7877785.
± gives the uncertainty stated by the source.

Assay: self-splicing fitness, log relative to wild type (ln ratio); higher = more splicing; Tetrahymena group I intron in knt gene, E. coli kanamycin selection, DiMSum; sequences stand for … in CUCUCU…GGAGGGAAAAGUUAUCAGGCAUGCACCUGGUAGCUAGUCUUUAAACCAAUAGAUUGCAUCGGUUUAAAAGGCAAGACCGUCAAAUUGCGGGAAAGGGGUCAACAGCCGUUCAGUACCAAGUCUCAGGGGAAACUUUGAGAUGGCCUUGCAAAGGGUAUGGUAAUAAGCUGACGGACAUGGUCCUAACCACGCAGCCAAGUCCUAAGUCAACAGAUCUUCUGUUGAUAUGGAUGCAGUUCACAGACUAAAUGUCGGUCGGGGAAGAUGUAUUCUUCUCAUAAGAUAUAGUCGGACCUCUCCUUAAUGGGAGCUAGCGGAUGAAGUGAUGCAACACUGGAGCCGCUGGGAACUAAUUUGUAUGCGAAAGUAUAUUGAUUAGUUUUGGAGUACUCGUGGUCG
How it was run: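 Pooled colonies went to amplicon sequencing on an Illumina HiSeq 2500 after six replicate transformations. The plates were LB agar with 100 μg/mL carbenicillin, 50 μM IPTG and 0.2% rhamnose, with or without 25 μg/mL kanamycin, incubated overnight at 37°C or 30°C. The E. coli BL21(DE3) library had all eight P1ex-region intron nucleotides randomised, the intron placed in the knt kanamycin-resistance gene on pET-22b(+). DiMSum fitness is the error-weighted combination of replicate fold changes, kanamycin against none, normalised to wild type.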

Sequence	self-splicing fitness (ln) (30 °C)	self-splicing fitness (ln) (37 °C)
GCGGAGCAAUAUUACGUGGU	-3.54 ± 0.26	-3.01 ± 0.4
UUUUAGCAAUAUUACGUAUC	–	-2.56 ± 0.33
GUCUAGCAAUAUUACGACAG	-2.33 ± 0.18	-1.71 ± 0.3
UAACAGCAAUAUUACGCUCA	-0.26 ± 0.091	0.174 ± 0.13
GCCCAGCAAUAUUACGAACG	-1.79 ± 0.32	-0.725 ± 0.34
UUCAAGCAAUAUUACGAGCC	-2.64 ± 0.32	–
GCCGAGCAAUAUUACGAAUU	-2.59 ± 0.11	-2.21 ± 0.15
AUCGAGCAAUAUUACGAUGA	-3.37 ± 0.25	-1.86 ± 0.16
CUGCAGCAAUAUUACGCAGU	-1.6 ± 0.14	-3.15 ± 0.35
UGUCAGCAAUAUUACGACGA	-0.0655 ± 0.12	-1.08 ± 0.12
GCCCAGCAAUAUUACGUGGA	-0.734 ± 0.063	0.199 ± 0.076
GUAUAGCAAUAUUACGCCCG	-1.63 ± 0.17	-1.37 ± 0.23
AUUCAGCAAUAUUACGGGUU	-2.8 ± 0.17	-1.75 ± 0.16
UGUUAGCAAUAUUACGCAUA	-1.72 ± 0.21	-0.397 ± 0.16
CACCAGCAAUAUUACGCCAU	-3.39 ± 0.31	-2.03 ± 0.29
ACCGAGCAAUAUUACGGCCG	-2.57 ± 0.09	-1.09 ± 0.1
AACCAGCAAUAUUACGGACC	0.38 ± 0.1	-0.273 ± 0.11
GAAAAGCAAUAUUACGAGAU	-3.26 ± 0.26	-2.08 ± 0.28
ACACAGCAAUAUUACGUCGA	-1.22 ± 0.089	-0.852 ± 0.092
UAGUAGCAAUAUUACGAACA	–	-0.405 ± 0.42
AUGGAGCAAUAUUACGUGUG	–	-2.69 ± 0.24
GGAAAGCAAUAUUACGAUCU	-3.9 ± 0.42	-1.68 ± 0.32
UCCAAGCAAUAUUACGCUCA	-1.03 ± 0.11	-0.393 ± 0.13
GCUAAGCAAUAUUACGCAUU	-0.91 ± 0.065	-0.163 ± 0.084
CUACAGCAAUAUUACGCGUA	-3.72 ± 0.31	-2.84 ± 0.3

Sequence	self-splicing fitness (ln) (30 °C)	self-splicing fitness (ln) (37 °C)
GUCCAGCAAUAUUACGUCCU	-1.77 ± 0.13	-0.83 ± 0.12
CAGCAGCAAUAUUACGCACA	-0.847 ± 0.088	-0.607 ± 0.093
ACUGAGCAAUAUUACGCGUU	-3.38 ± 0.17	-1.51 ± 0.13
UCUAAGCAAUAUUACGCUUU	-3.36 ± 0.21	-2.94 ± 0.48
ACGUAGCAAUAUUACGGAGG	-4.05 ± 0.28	-2.53 ± 0.19
CUGGAGCAAUAUUACGUCAG	-4.05 ± 0.46	-2.59 ± 0.29
AGGUAGCAAUAUUACGACCC	-2.38 ± 0.047	-1.69 ± 0.064
GCCUAGCAAUAUUACGGGCA	-1.3 ± 0.12	-1.61 ± 0.12
UCACAGCAAUAUUACGAGGA	-1.73 ± 0.13	-1.65 ± 0.13
AGUCAGCAAUAUUACGAGCU	-1.97 ± 0.17	-0.789 ± 0.19
AAUUAGCAAUAUUACGCUCC	-1.09 ± 0.36	-0.0599 ± 0.35
GUCCAGCAAUAUUACGGGAC	-3.53 ± 0.2	-2.94 ± 0.31
UUUAAGCAAUAUUACGUGGA	-1.99 ± 0.18	-1.56 ± 0.2
CUUGAGCAAUAUUACGCCUC	–	-0.747 ± 0.3
CAAUAGCAAUAUUACGCUUC	-4.65 ± 0.36	-2.95 ± 0.35
UUUGAGCAAUAUUACGUAAC	-2.01 ± 0.5	–
UACGAGCAAUAUUACGGCUA	0.411 ± 0.22	0.683 ± 0.23
UGGUAGCAAUAUUACGCGGG	-2.93 ± 0.2	-2.47 ± 0.2
CAACAGCAAUAUUACGGUCU	-3.01 ± 0.11	-2.07 ± 0.095
UCACAGCAAUAUUACGGACG	-1.22 ± 0.073	-0.222 ± 0.091
GUAGAGCAAUAUUACGGCUC	-1.57 ± 0.26	-0.26 ± 0.45
UCGCAGCAAUAUUACGUAUG	-1.83 ± 0.1	-2.02 ± 0.15
ACUUAGCAAUAUUACGAGUA	0.101 ± 0.18	-1.33 ± 0.21
UCUAAGCAAUAUUACGUAAA	-1.36 ± 0.097	-0.985 ± 0.12
UCGGAGCAAUAUUACGUCCU	-1.79 ± 0.17	-0.83 ± 0.25

Sequence	self-splicing fitness (ln) (30 °C)	self-splicing fitness (ln) (37 °C)
UUGCAGCAAUAUUACGUUGA	-1.61 ± 0.12	-1.24 ± 0.12
CCUUAGCAAUAUUACGAUCC	-2.32 ± 0.4	-2.74 ± 0.49
ACCGAGCAAUAUUACGCUAU	-2.77 ± 0.14	-2.26 ± 0.14
CGGGAGCAAUAUUACGCGCU	-3.25 ± 0.32	–
CCUAAGCAAUAUUACGAUGU	-2.84 ± 0.12	-2.03 ± 0.15
AUUCAGCAAUAUUACGGCCA	-0.32 ± 0.21	-0.225 ± 0.21
ACCUAGCAAUAUUACGCGGC	-3.53 ± 0.33	-1.38 ± 0.17
CUUGAGCAAUAUUACGCAGU	-2.73 ± 0.23	-2.64 ± 0.37
ACGUAGCAAUAUUACGAAAG	-3.88 ± 0.25	-3.59 ± 0.31
UAUGAGCAAUAUUACGCGCU	-3.68 ± 0.31	-2.64 ± 0.28
GCGUAGCAAUAUUACGUCGG	-2.69 ± 0.21	-3.18 ± 0.24
UCCAAGCAAUAUUACGUGGU	-2.96 ± 0.1	-1.45 ± 0.092
UUAGAGCAAUAUUACGCGGC	–	-0.994 ± 0.26
GUAGAGCAAUAUUACGUUGC	-4.29 ± 0.3	-3.11 ± 0.24
GUUAAGCAAUAUUACGAUGA	-1.33 ± 0.17	0.18 ± 0.11
CAAUAGCAAUAUUACGCGAC	-2.2 ± 0.17	-2.54 ± 0.38
GGCAAGCAAUAUUACGCUUC	-1.44 ± 0.21	-2.39 ± 0.42
UCUAAGCAAUAUUACGAGAG	-3.21 ± 0.28	-2.37 ± 0.21
UAACAGCAAUAUUACGCAAA	-3.11 ± 0.19	-2.3 ± 0.12
AACAAGCAAUAUUACGAUCA	-0.766 ± 0.058	-0.628 ± 0.078
CGCUAGCAAUAUUACGCCAG	-3.09 ± 0.15	-2.81 ± 0.29
GCGGAGCAAUAUUACGUCUC	–	-2.54 ± 0.38
GAGGAGCAAUAUUACGACUU	-2.79 ± 0.23	-1.97 ± 0.2
AGAAAGCAAUAUUACGCUAG	-3.32 ± 0.22	-2.65 ± 0.21
UGACAGCAAUAUUACGUGUA	-1.58 ± 0.081	-0.841 ± 0.081

Sequence	self-splicing fitness (ln) (30 °C)	self-splicing fitness (ln) (37 °C)
AUUAAGCAAUAUUACGGUCU	-0.183 ± 0.15	0.0171 ± 0.15
UUUGAGCAAUAUUACGCUUG	-3.52 ± 0.37	-1.63 ± 0.4
GCACAGCAAUAUUACGCGCU	-2.39 ± 0.22	-1.1 ± 0.19
CGCUAGCAAUAUUACGAUAA	-4.27 ± 0.36	-2.35 ± 0.32
GACGAGCAAUAUUACGGGUG	-4.16 ± 0.31	-1.89 ± 0.16
CUGAAGCAAUAUUACGUAUC	-3.82 ± 0.23	-1.78 ± 0.23
ACUAAGCAAUAUUACGACCG	-0.45 ± 0.17	0.0545 ± 0.21
CCAGAGCAAUAUUACGACUA	-2.95 ± 0.28	-2.47 ± 0.38
GUCGAGCAAUAUUACGUCAA	-2.62 ± 0.29	-2.32 ± 0.22
UCUUAGCAAUAUUACGUCGA	-0.705 ± 0.13	-0.434 ± 0.15
AUUCAGCAAUAUUACGUUGA	-2.64 ± 0.1	-1.34 ± 0.093
GCUGAGCAAUAUUACGUUCU	-0.944 ± 0.12	-0.758 ± 0.15
AACAAGCAAUAUUACGAUAU	-1.42 ± 0.098	-1.03 ± 0.12
AACAAGCAAUAUUACGCACU	0.195 ± 0.069	-0.195 ± 0.083
AAGUAGCAAUAUUACGGACA	-1.7 ± 0.12	-0.343 ± 0.12
UCGCAGCAAUAUUACGACAU	-3.604 ± 0.025	-2.56 ± 0.037
UCAUAGCAAUAUUACGUUGC	-3.86 ± 0.31	-2.31 ± 0.32
GCACAGCAAUAUUACGCAUA	-0.997 ± 0.088	-0.269 ± 0.085
GAUAAGCAAUAUUACGGAGU	-2.46 ± 0.16	-0.942 ± 0.14
UGUCAGCAAUAUUACGACCA	-0.0909 ± 0.084	0.138 ± 0.12
GCAUAGCAAUAUUACGGGCA	-1.67 ± 0.14	-0.974 ± 0.12
GUAAAGCAAUAUUACGCAGG	-1.96 ± 0.12	-0.168 ± 0.14
CUGCAGCAAUAUUACGGCAA	-0.665 ± 0.094	0.202 ± 0.088
